B1: Tumor protein p73 (Homo sapiens), O15350-1 (parent)
chain: MAQSTATSPDGGTTFEHLWSSLEPDSTYFDLPQSSRGNNEVVGGTDSSMDVFHLEGMTTSVMAQFNLLSSTMDQMSSRAASASPYTPEHAASVPTHSPYAQPSSTFDTMSPAPVIPSNTDYPGPHHFEVTFQQSSTAKSATWTYSPLLKKLYCQIAKTCPIQIKVSTPPPPGTAIRAMPVYKKAEHVTDVVKRCPNHELGRDFNEGQSAPASHLIRVEGNNLSQYVDDPVTGRQSVVVPYEPPQVGTEFTTILYNFMCNSSCVGGMNRRPILIIITLEMRDGQVLGRRSFEGRICACPGRDRKADEDHYREQQALNESSAKNGAASKRAFKQSPPAVPALGAGVKKRRHGDEDTYYLQVRGRENFEILMKLKESLELMELVPQPLVDSYRQQQQLLQRPSHLQPPSYGPVLSPMNKVHGGMNKLPSVNQLVGQPPPHSSAATPNLGPVGPGMLNNHGHAVPANGEMSSSHSAQSMVSGSHCTPPPPYHADPSLVSFLTGLGCPNCIEYFTSQGLQSIYHLQNLTIEDLGALKIPEQYRMTIWRGLQDLKQGHDYSTAQQLLRSSNAATISIGGSGELQRQRVMEAVHFRVRHTITIPNRGGPGGGPDEWADFGFDLPDCKARKQPIKEEFTEAEIH

Variants of: B1
Settings: with itch_human ITCH

Variant	effect of a mutation on the interaction
Y487F	disrupting interaction

Reference: IntAct's records for PubMed 15678106
